In patent US20170233497A1 one finds EC50 (read off the curve) and fold higher binding efficiency to mouse FcRn compared to human FcRn data, which are given here for 7 substances.

Assay [1] concerns the target recombinant extracellular domain of EGFR (UniProt P00533). Description: EGFR-coat/anti-7D8-idiotype sandwich ELISA; mixture after 25 mM 2-MEA, 90 min, 37 °C; axis = total antibody of the mixture.
In assay [2] the target is mouse FcRn (neonatal Fc receptor), biotinylated (mouse) (UniProt Q61559). Put plainly: FcRn ELISA at pH 6.0.
Assay [3] deals with recombinant extracellular domain of EGFR (UniProt P00533). Put plainly: EGFR-coat/anti-7D8-idiotype sandwich ELISA; mixture after 25 mM 2-MEA, 90 min, 37 °C; axis = total antibody of the mixture. This is another data set of the same source.

Like-named read-outs stand apart in the source and are kept apart here.

For “IgG1-2F8-F405L+IgG4-7D8 (bispecific antibody)”, in assay [1], the EC50 (read off the curve) was 0.3 µg/mL.
As for “IgG1-2F8-F405L+IgG4-7D8-CPPC (bispecific antibody)”, the EC50 (read off the curve) in assay [1] was determined as 0.3 µg/mL.
Substance IgG1-2F8-ITL (antibody) gave a fold higher binding efficiency to mouse FcRn compared to human FcRn in assay [2] of 3 fold.
For the substance “IgG4-2F8 x IgG4-7D8 (bispecific antibody)”, the EC50 (read off the curve) in assay [1] stood at 0.4 µg/mL; in assay [3] it was 0.3 µg/mL.
As for “IgG4-2F8+IgG4-7D8 (deglyc) (bispecific antibody)”, the EC50 (read off the curve) in assay [3] worked out at 0.4 µg/mL.
For the substance “IgG4-7D8-CPPC x IgG4-2F8 (bispecific antibody)”, the EC50 (read off the curve) in assay [1] is 0.3 µg/mL.
“bispecific IgG1 generated from IgG1-2F8-ITL and IgG1-7D8-K409R (bispecific antibody)”: the fold higher binding efficiency to mouse FcRn compared to human FcRn in assay [2] amounted to 3 fold.
